Among the data in the supplement of paper PMC10567573 are protein stability index values, retold here.

± gives the standard deviation.

The data set is described as follows: protein stability index of a GFP-peptide fusion (GPS, HEK-293T) (PSI 1-6); higher = more stable.
The mark [1] stands for this setting: treatment: DMSO, c terminus: a fixed tail appended.
Setting [2] is: treatment: MLN4924 1 uM, 8 h, c terminus: a fixed tail appended.
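Further: 24-mer peptide tiles fused after GFP, lentivirally expressed, FACS-sorted into six equal bins by GFP/DsRed ratio, decoded by Illumina sequencing, PSI is the read-weighted mean bin number.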

Take VLITVEDVNDNSPELTITSLFSPV [PCDHGA10]: the protein stability index is, setting by setting: under setting [1], 2.3 ± 0.49; under setting [2], 2.07 ± 0.19.
Regarding LAVSRPRSSPDDLKALTRNVNRLN [SCARA5], the protein stability index under setting [1] was 3.82 ± 0.22 and the protein stability index under setting [2] turned out to be 3.84 ± 0.22.
For the sequence DVPNRLVDNIDMIDGDGDDMERFM [BEX5], the protein stability index is, setting by setting: under setting [1], 4.98 ± 0.18; under setting [2], 5.06 ± 0.21.
EIRMWQTREKAKFSDGEKCRREAF [PHTF1] yielded a protein stability index under setting [1] of 2.98 ± 0.14 and a protein stability index under setting [2] of 3.1 ± 0.31.
As for GHGADVLCLDLAPSETGNTFVSGG [GNB5], the protein stability index under setting [1] is 4.24 ± 0.084 and the protein stability index under setting [2] worked out at 4.33 ± 0.4.
The corresponding values for SLKLALLFYILTFVGAIFNGLTLL [RTN2] are 3.88 ± 0.94 and 3.04 ± 0.11.
The corresponding values for LGCFSDTEPWGGTAIRPLKILPWS [PNLIPRP1] are 2.1 ± 0.28 and 2.43 ± 0.57.
The corresponding values for EAFKNILTEIYRIVSQKQIADRAA [RAB11B] are 2.81 ± 0.4 and 2.81 ± 0.49.
KIYAYPSNITSETGFRTISSLEEI [TMEM192]: the protein stability index is, setting by setting: under setting [1], 2.59 ± 0.15; under setting [2], 2.9 ± 0.3.
For TSCAGNLPSRPPPLLSPLLASRNP [RSPH3], in that order: 3.45 ± 0.22 and 3.61 ± 0.32.
The corresponding values for ELSSLGSDSEANGFAERRIDKFGF [TBC1D10A] are 3.82 ± 0.2 and 3.83 ± 0.15.
For LQVIYWARDVFIITGVWVFFFNPC [GOSR1], in that order: 2.37 ± 0.7 and 2.57 ± 0.15.
Consider CYSEEITVCGDLHGQLDDLIFIFY [PPEF2], for which the protein stability index worked out at 2.96 ± 0.43 under setting [1] and 2.65 ± 0.46 under setting [2].
For QTYQPPWKALSEFALQSDLDQPAF [ISL2], in that order: 2.96 ± 0.28 and 3.04 ± 0.21.
In the case of VVLDMEEGTLGYAIGGTYLGPAFR [SPSB2], the protein stability index is, setting by setting: under setting [1], 2.37 ± 0.24; under setting [2], 2.19 ± 0.074.
For AANPRPDALMKEQLVEMTGLSPRV [ISL2], in that order: 4.17 ± 0.27 and 4.19 ± 0.33.
On to ALPIATAFTEYVHAYFRGHSPSCL [FCHO1], for which the protein stability index reads like this: under setting [1], 2.73 ± 0.55; under setting [2], 2.78 ± 0.57.
The corresponding values for CRALRDPALDSLAYEYEREGLYEQ [TRADD] are 3.73 ± 0.34 and 3.63 ± 0.18.
Turning to LQDQEKAWGFPENATAPRSPSHSP [ELOA2], the protein stability index runs as follows: under setting [1], 5.38 ± 0.26; under setting [2], 5.4 ± 0.26.
For QCANKVLQHMKAVQADQERERQRR [LRRC59], in that order: 3.93 ± 0.4 and 4.17 ± 0.18.
For MELLTNNLKFITDPFVCRLRHLSP [OR4A15], in that order: 2.17 ± 0.22 and 2.58 ± 0.38.
Take VDDHTPWVKGSVPPPLDQYVKFDA [CLPTM1]: the protein stability index runs as follows: under setting [1], 3.99 ± 0.15; under setting [2], 3.74 ± 0.24.
For PAYVGPEILSSRASYSGKAADVWS [TRIB3], in that order: 3.09 ± 0.2 and 3.18 ± 0.19.
For LDDRKNEEDGGADEHEHPLTSELD [MIA2], in that order: 5.76 ± 0.12 and 5.26 ± 0.38.
EGDVCGVEPPGPGDTVVQGDLQET [PBXIP1]: the protein stability index by setting is: under setting [1], 5.57 ± 0.28; under setting [2], 5.64 ± 0.19.
On to IPKPQSTGWFGGGFTSYLGFGDED [MIA2], for which the protein stability index under setting [1] came out at 3.14 ± 0.16 and the protein stability index under setting [2] was determined as 3.53 ± 0.55.
Consider SCNDSKLEFRSFWELIGEAAKSVK [S100A14], for which the protein stability index is 2.18 ± 0.21 under setting [1] and 2.11 ± 0.52 under setting [2].
On to GSAGGLGSTLGGSSYSSCYSFGSG [KRT17], for which the protein stability index was determined as 3.29 ± 0.13 under setting [1] and 3.43 ± 0.33 under setting [2].
The corresponding values for AADGPTVCCNPYHFSRLCGPESPP [SMAD6] are 3.65 ± 0.11 and 3.76 ± 0.24.
For the sequence AVFMWPGKDSRWLPSLVLARLVFV [SLC29A1], the protein stability index runs as follows: under setting [1], 3.25 ± 0.68; under setting [2], 2.67 ± 0.34.
In the case of ARYGHLDMVEFLLEQCSASIEVGG [FEM1C], the protein stability index under setting [1] came to 2.48 ± 0.5 and the protein stability index under setting [2] was 2.14 ± 0.36.
For KDVSRCVAERKYTQEQARKEFQQV [SMOC2], in that order: 4.49 ± 0.16 and 4.51 ± 0.38.
The corresponding values for IKKKGWRRSSLVITTKIFWGGKAE [KCNAB2] are 2.51 ± 0.55 and 2.75 ± 0.64.
For VILNYPSPWDQEERPAQRDCSFPG [TRAF3IP2], in that order: 2.79 ± 0.21 and 3.15 ± 0.25.
As for KKNHEEEMKEFSSQLAGQVNVEMD [KRT15], the protein stability index is 5.6 ± 0.12 under setting [1] and 5.59 ± 0.23 under setting [2].
For KHLNASNPTEPATIIFTAAREGRE [TOR1AIP2], in that order: 4.13 ± 0.2 and 4.22 ± 0.27.
For FMRTDPVCQKLLLDAMNYHLMPFR [KLHL14], in that order: 2.25 ± 0.19 and 2.28 ± 0.3.
For QLWELGKVLRKAGLSAGYVDAGAE [LPCAT4], in that order: 2.13 ± 0.27 and 2.13 ± 0.36.
Consider MRQFLRGLDFLHANCIVHRDLKPE [CDK4], for which the protein stability index is, setting by setting: under setting [1], 2.21 ± 0.22; under setting [2], 2.23 ± 0.13.
The corresponding values for VRVRQDSGAEGHSHSCYHDTRSGF [TRIM35] are 3.51 ± 0.25 and 3.62 ± 0.31.
For GEVPVLIHGENIICEATQIIDYLE [GDAP1], in that order: 3.55 ± 0.29 and 3.6 ± 0.3.
The corresponding values for ASIQNHVRKREAPAPEAESKQTEK [EFHC1] are 5.36 ± 0.28 and 5.32 ± 0.37.
With EIFRQRFRQFGYQDSPGPREAVSQ [ZNF24], the protein stability index is, setting by setting: under setting [1], 2.7 ± 0.21; under setting [2], 3.25 ± 0.082.
For TLSDWAAAVESVLHLGLPWRMLRP [PPEF2], in that order: 3.1 ± 0.84 and 2.48 ± 0.37.
The corresponding values for SSELTDSLRTLKPEGNILRDRFKS [NOP53] are 4.42 ± 0.22 and 4.49 ± 0.14.
On to TGEHREFKLDKKYQRPQDSEDMWG [FBF1], for which the protein stability index under setting [1] worked out at 4.56 ± 0.23 and the protein stability index under setting [2] turned out to be 4.55 ± 0.35.
VSKELRMYDEKAHEWKSLAPMDAP [KLHL13] gave a protein stability index under setting [1] of 3.73 ± 0.36 and a protein stability index under setting [2] of 4.04 ± 0.11.
For ECGHNFCKACITRWWEDLERDFPC [TRIM39], the protein stability index reads like this: under setting [1], 2.97 ± 0.49; under setting [2], 3.01 ± 0.7.
Take SIKNSLKVAAISESPVAEKSAST [PTGFR]: the protein stability index (treatment: DMSO, c terminus: native) came to 4.5 ± 0.14 and the protein stability index (treatment: MLN4924 1 uM, 8 h, c terminus: native) is 4.27 ± 0.2.
PNRFLRGHRPPPARSGHRCVADNT [KLHDC10] returned a protein stability index under setting [1] of 4.04 ± 0.2 and a protein stability index under setting [2] of 4.32 ± 0.34.
On to GGPQALVNIMRTYTYEKLLWTTSR [CTNNB1], for which the protein stability index was found to be 2.43 ± 0.6 under setting [1] and 2.5 ± 0.27 under setting [2].
The corresponding values for EMYQVSRLQHICELFIITQLQSMP [RHOBTB3] are 2.21 ± 0.23 and 2.16 ± 0.44.
Consider AHRIAAQTLLGTAKMLLHEGQHPA [PYCR3], for which the protein stability index reads like this: under setting [1], 2.97 ± 0.31; under setting [2], 2.95 ± 0.42.
On to LAEYQDLTFLTKQEILLAHRRFCE [CIB1], for which the protein stability index worked out at 2.3 ± 0.1 under setting [1] and 2.54 ± 0.38 under setting [2].
For the sequence VDPANDTFDIDPMVVTDCIQVDPP [MCOLN1], the protein stability index runs as follows: under setting [1], 5.09 ± 0.38; under setting [2], 5.22 ± 0.28.
For RTITFEQFQEALEELAKKRFKDKS [TPPP], in that order: 2.54 ± 0.11 and 2.74 ± 0.43.
For NGMAIIRPPGHHAQHSLMDGYCMF [HDAC6], in that order: 2.37 ± 0.17 and 2.21 ± 0.31.
In turn, GGTSSNNSEEEEDDDDEEEEVSEV [ANKRD17] gave a protein stability index under setting [1] of 5.5 ± 0.23 and a protein stability index under setting [2] of 5.54 ± 0.16.
For WYWHGDVNSNKVVMSGVKCSGTEL [LOXL2], in that order: 2.68 ± 0.53 and 2.75 ± 0.28.
The corresponding values for GQLYAMELQGFWMDIGQPKDFLTG [GMPPB] are 2.01 ± 0.47 and 1.92 ± 0.13.
For RVRRFQVVEVTKGILEHVDSASPV [M1AP], in that order: 3.36 ± 0.2 and 3.37 ± 0.17.
CHSESGKSRLVQLPPVAVRSLQDL [PCMTD2] came in with a protein stability index under setting [1] of 3.44 ± 0.33 and a protein stability index under setting [2] of 3.28 ± 0.28.
On to MCPPVSMRYEEEGMSYLYASWMYQ [TEX19], for which the protein stability index amounted to 2.3 ± 0.082 under setting [1] and 2.11 ± 0.22 under setting [2].
Consider ERAKREMVMYSITVAFWLLNSWLW [MFF], for which the protein stability index reads like this: under setting [1], 2.48 ± 0.48; under setting [2], 1.87 ± 0.39.
The sequence AAIAFTLALFSHLVNHVNIRLQAE [SMG5] had a protein stability index under setting [1] of 3.22 ± 0.4 and a protein stability index under setting [2] of 3.46 ± 0.37.
The corresponding values for MFGFFFGRTPLIKLSPKKTWEGFI [CDS2] are 2.38 ± 0.48 and 2.35 ± 0.49.
The corresponding values for PRGQEGSRQDKPLSPAGSSQEAAD [YJU2B] are 5.54 ± 0.079 and 5.48 ± 0.2.
For SRDEAALPELLLGALPVGSNLTSN [RETREG3], in that order: 4.19 ± 0.23 and 4.43 ± 0.28.
As for LCKSVLEIERAIKQTQCPADPLQL [FEM1C], the protein stability index runs as follows: under setting [1], 3.17 ± 0.13; under setting [2], 3.11 ± 0.26.
In the case of VLEMFDLRMMVENIMNKEAFMNQE [RHOBTB1], the protein stability index under setting [1] was determined as 2.47 ± 0.45 and the protein stability index under setting [2] came to 2.33 ± 0.26.
In the case of GRKFLQKHLNASNPTEPATIIFTA [TOR1AIP2], the protein stability index is 2.35 ± 0.36 under setting [1] and 2.13 ± 0.32 under setting [2].
With IAAGEVIQRPANAIKEMIENCLDA [MLH1], the protein stability index is, setting by setting: under setting [1], 4.26 ± 0.18; under setting [2], 4.3 ± 0.34.
